Here are results for 15 molecules from patent US20240116985A1 (published 2024).

T1: full-length beta-Catenin (Uniprot ID P35222) (Homo sapiens (Human), UniProt P35222 2-781)
T1 construct: the AlphaScreen assay uses a Histidine (Nickel Chelate) detection kit, so a His tag is likely there; also called B-Catenin; bCat
T1 sequence: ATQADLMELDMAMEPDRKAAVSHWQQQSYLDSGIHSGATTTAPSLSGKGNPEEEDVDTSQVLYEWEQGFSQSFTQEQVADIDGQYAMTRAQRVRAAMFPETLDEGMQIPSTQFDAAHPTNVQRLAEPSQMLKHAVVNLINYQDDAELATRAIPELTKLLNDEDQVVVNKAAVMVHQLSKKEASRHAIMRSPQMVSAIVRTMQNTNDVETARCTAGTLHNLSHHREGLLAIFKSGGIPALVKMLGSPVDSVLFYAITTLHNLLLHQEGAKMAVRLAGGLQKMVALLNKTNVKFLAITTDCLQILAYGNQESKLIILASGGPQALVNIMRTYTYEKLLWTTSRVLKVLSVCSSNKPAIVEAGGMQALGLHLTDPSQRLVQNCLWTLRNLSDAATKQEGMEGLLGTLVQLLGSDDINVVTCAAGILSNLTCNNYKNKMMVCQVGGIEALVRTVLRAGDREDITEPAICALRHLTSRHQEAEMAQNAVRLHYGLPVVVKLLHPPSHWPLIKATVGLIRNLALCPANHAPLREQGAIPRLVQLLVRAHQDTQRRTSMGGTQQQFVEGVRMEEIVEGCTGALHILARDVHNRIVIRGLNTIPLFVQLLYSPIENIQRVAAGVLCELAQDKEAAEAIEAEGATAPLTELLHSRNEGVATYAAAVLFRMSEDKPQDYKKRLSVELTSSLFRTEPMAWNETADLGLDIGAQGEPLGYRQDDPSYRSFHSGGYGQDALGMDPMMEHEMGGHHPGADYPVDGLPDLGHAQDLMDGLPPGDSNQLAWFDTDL

T2: full-length beta-Catenin (Uniprot ID P35222) (Homo sapiens (Human), UniProt P35222 1-781)
T2 construct: The assay protocols call it full-length; also called B-Catenin; bCat
T2 sequence: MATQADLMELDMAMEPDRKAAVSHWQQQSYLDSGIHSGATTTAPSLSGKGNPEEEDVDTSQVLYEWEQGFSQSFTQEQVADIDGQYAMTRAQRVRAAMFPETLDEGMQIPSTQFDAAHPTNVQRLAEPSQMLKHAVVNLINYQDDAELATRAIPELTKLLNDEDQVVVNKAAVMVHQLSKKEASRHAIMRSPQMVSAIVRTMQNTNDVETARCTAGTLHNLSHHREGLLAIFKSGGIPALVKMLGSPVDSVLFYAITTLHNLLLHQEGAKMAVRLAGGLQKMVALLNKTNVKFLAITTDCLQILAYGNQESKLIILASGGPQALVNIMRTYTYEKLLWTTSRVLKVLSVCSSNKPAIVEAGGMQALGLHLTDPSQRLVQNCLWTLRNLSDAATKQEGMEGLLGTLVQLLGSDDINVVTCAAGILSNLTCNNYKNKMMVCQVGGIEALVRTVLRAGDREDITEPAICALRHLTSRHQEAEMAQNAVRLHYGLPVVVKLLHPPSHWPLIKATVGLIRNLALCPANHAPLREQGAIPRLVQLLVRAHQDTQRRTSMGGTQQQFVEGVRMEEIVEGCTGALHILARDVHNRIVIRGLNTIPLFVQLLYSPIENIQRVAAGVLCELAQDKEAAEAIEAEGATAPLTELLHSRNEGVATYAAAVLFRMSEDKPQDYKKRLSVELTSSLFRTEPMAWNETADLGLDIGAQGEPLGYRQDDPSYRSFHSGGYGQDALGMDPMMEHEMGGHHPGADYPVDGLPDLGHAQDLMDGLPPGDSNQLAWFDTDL

B1: I-162 (peptide)
peptide: Ac-FDA[R8]DDAAFV[PyrS″]EWQ-NH2
modifications: staple 4-11; not fully specified; printed as Ac-Phe-Asp-Ala-R8-Asp-Asp-Ala-Ala-Phe-Val-PyrS-Glu-Trp-Gln-NH2
notes: stapled peptide
B2: I-163 (peptide)
peptide: Ac-FDA[R8]DDAAFS[PyrS″]FWQ-NH2
modifications: staple 4-11; not fully specified; printed as Ac-Phe-Asp-Ala-R8-Asp-Asp-Ala-Ala-Phe-Ser-PyrS-Phe-Trp-Gln-NH2
notes: stapled peptide
B3: I-161 (peptide)
peptide: Ac-FDA[R8]DDAAFV[PyrS]EWQ-NH2
modifications: staple 4-11; not fully specified; printed as Ac-Phe-Asp-Ala-R8-Asp-Asp-Ala-Ala-Phe-Val-PyrS-Glu-Trp-Gln-NH2
notes: stapled peptide
B4: I-159 (peptide)
peptide: Ac-[Aib]DA[R8]DEAAFV[PyrS″]FW[Aib]-NH2
modifications: staple 4-11; not fully specified; printed as Ac-Aib-Asp-Ala-R8-Asp-Glu-Ala-Ala-Phe-Val-PyrS-Phe-Trp-Aib-NH2
notes: stapled peptide
B5: I-160 (peptide)
peptide: Ac-[Aib]DA[R8]DEAAFV[PyrS]FW[Aib]-NH2
modifications: staple 4-11; not fully specified; printed as Ac-Aib-Asp-Ala-R8-Asp-Glu-Ala-Ala-Phe-Val-PyrS-Phe-Trp-Aib-NH2
notes: stapled peptide
B6: I-171 (peptide)
peptide: XDAXDEAAFVXFXQ
modifications: not fully specified; as printed: Ac-PL3-Asp-Ala-B5-Asp-Glu-Ala-Ala-Phe-Val-S8-Phe-5CpW-Gln-NH2; N-terminal acetyl, C-terminal amide; PL3(1), B5(4), S8(11), 5CpW(13); staples PL3-B5 and B5-S8 by olefin metathesis
notes: stapled peptide
B7: I-269 (peptide)
peptide: Ac-[αAllylPro]DA[B5(17)]DDAAFV[S8][hTyr]WQ-NH2
modifications: staple 1-4, 4-11
notes: Stapled (stitched) peptide; also called Ac-PL3-Asp-Ala-B5-Asp-Asp-Ala-Ala-Phe-Val-S8-hTyr-Trp-Gln-NH2
B8: I-272 (peptide)
peptide: Ac-[αAllylPro]DA[B5(17)]D[4Pal]AAFV[S8]FWQ-NH2
modifications: staple 1-4, 4-11
notes: Stapled (stitched) peptide; also called Ac-PL3-Asp-Ala-B5-Asp-4PyrA-Ala-Ala-Phe-Val-S8-Phe-Trp-Gln-NH2
B9: I-268 (peptide)
peptide: Ac-[αAllylPro]DA[B5(17)]DDAAFV[S8][hPhe]WQ-NH2
modifications: staple 1-4, 4-11
notes: Stapled (stitched) peptide; also called Ac-PL3-Asp-Ala-B5-Asp-Asp-Ala-Ala-Phe-Val-S8-hPhe-Trp-Gln-NH2

Starred links: 1 amine or outer side, 2 acyl side, 3 side chain; linkers in the order of their positions; H or OH if unused. Positions of bridges follow the written chain, without caps; N, C: chain ends. Non-standard residues stand in square brackets, D forms with d. Primed or numbered codes have the meaning given here. B5(16) = 2-amino-2-(pent-4-en-1-yl)hept-6-enoic acid = 2,2-bis(4-pentenyl)glycine (stitching residue), C=CCCCC(CCCC=C)(N[*:1])C(=O)[*:2]; B5(17) = 2,2-bis(4-pentenyl)glycine = 2-amino-2-(pent-4-en-1-yl)hept-6-enoic acid, stitching residue, C=CCCCC(CCCC=C)(N[*:1])C(=O)[*:2]; PyrS″ = (S)-1-((allyloxy)carbonyl)-3-aminopyrrolidine-3-carboxylic acid (stapling residue), C=CCOC(=O)N1CC[C@@](N[*:1])(C(=O)[*:2])C1; PyrS = (S)-1-((allyloxy)carbonyl)-3-aminopyrrolidine-3-carboxylic acid, C=CCOC(=O)N1CC[C@@](N[*:1])(C(=O)[*:2])C1; Trp(5-cPr) = 5-cyclopropyl-L-tryptophan (5CpW), O=C([C@H](Cc1c[nH]c2ccc(C3CC3)cc12)N[*:1])[*:2]; B5 = 2-amino-2-(pent-4-en-1-yl)hept-6-enoic acid, C=CCCCC(CCCC=C)(N[*:1])C(=O)[*:2]; Trp(5-CF3) = N[C@@H](Cc1c[nH]c2ccc(C(F)(F)F)cc12)C(=O)O; H2Trp = 2,3-dihydrotryptophan (indolin-3-yl alanine); Trp(5-OMe) = COc1ccc2[nH]cc(C[C@H](N)C(=O)O)c2c1; hTyr = N[C@@H](CCc1ccc(O)cc1)C(=O)O; αAllylPro = C=CC[C@@]1(C(=O)O)CCCN1; hPhe = N[C@@H](CCc1ccccc1)C(=O)O; 4Pal = N[C@@H](Cc1ccncc1)C(=O)O; R8 = C=CCCCCCC[C@@](C)(N)C(=O)O; S8 = C=CCCCCCC[C@](C)(N)C(=O)O; Aib = CC(C)(N)C(=O)O

One experiment deals with T1, full-length beta-Catenin (Uniprot ID …). Description: AlphaScreen competition; full-length beta-catenin with biotin-TCF4(10-53) probe as competitor. As to the method: (§1) Equal volume of the titrated peptide was added to the plate and incubated for 15 minutes at 20° C. Then 4 uL of donor and 4 uL acceptor beads at 10 ug/mL were added to the plate, for a 16 uL reaction pool and protected from light for 60 minutes at 20° C. prior to read. Reads were performed on a CLARIOstar plate reader (BMG Labtech) in duplicate, and data were fitted to a 1:1 binding model with hill slope using an in-house script. All provided concentrations are final concentrations.
As usually defined, the EC50 is the concentration that produces a half-maximal response. A higher EC50 goes with lower potency in that assay. Molecule B1 showed an EC50 not below 10 µM.

For B2, the EC50 was found to be 9.75 µM. This counts as single-digit micromolar.

Turning to Ac-[αAllylPro]DA[B5(16)]DEAAFV[S8]F[H2Trp]Q-NH2 (staple 1-4, 4-11, stapled peptide) [I-167], the midpoint of the response, the EC50, lay at 6.2 µM.

Ac-[αAllylPro]DA[B5]DEAAFV[S8]F[Trp(5-cPr)]Q-NH2 (staple 1-4, 4-11, stapled peptide) [I-170] gave a half-maximal effective concentration (EC50) of 4.67 µM.

As for B3, the concentration giving a half-maximal response (EC50) is not below 10 µM.

Ac-[αAllylPro]DA[B5(16)]DEAAFV[S8]F[H2Trp]Q-NH2 (staple 1-4, 4-11, stapled peptide) [I-168] showed a concentration for a half-maximal effect (EC50) of 5.64 µM. In other words, the single-digit micromolar range.

The molecule Ac-[αAllylPro]DA[B5(16)]DEAAFV[S8]F[Trp(5-OMe)]Q-NH2 (staple 1-4, 4-11, stapled peptide composition) [I-165] had an EC50 of 1.23 µM.

On to B4, for which the EC50 turned out to be 5.35 µM.

B5 yielded an EC50 of 3.24 µM.

As to Ac-FDA[R8]DDAAFS[PyrS]FWQ-NH2 (staple 4-11, stapled peptide) [I-164], the 50% effective concentration (EC50) is 3.61 µM. This EC50 and that of the molecule before are within 1.5-fold of each other.

In the case of B6, the EC50 was 2.07 µM.

Molecule Ac-[αAllylPro]DA[B5]DEAAFV[S8]F[Trp(5-CF3)]Q-NH2 (staple 1-4, 4-11, stapled peptide composition) [I-169] had a concentration giving a half-maximal response (EC50) of 9.21 µM. This EC50 lies about 4.4-fold higher than the previous one.

Another experiment addresses T2, full-length beta-Catenin (Uniprot ID …). Description: AlphaScreen competition; full-length beta-catenin with biotin-labelled TCF4 10-53 peptide as competitor. As to the method:
as §1
For orientation: Bead proximity is the source of the signal in Alpha formats.
B7 returned an EC50 of 5.31 µM.

As for B8, the EC50 was 1.01 µM.

For the molecule B9, a half-maximal response (EC50) required 4 µM. This EC50 is about 4-fold higher than that of the molecule before.
